Experimental data: US20040116333A1 (ABGENOMICS COOPERATIEF U A, published 2004)

How the values were obtained:
[1] = target: human P-selectin glycoprotein ligand-1 (PSGL-1) (human) (UniProt Q14242); experiment: cell-based or functional assay
[2] = target: T1, recombinant mouse P-selectin/Fc chimera (R&D Systems) (mouse; human, UniProt Q01102 42-709); experiment: flow cytometry on Con A-activated mouse T cells, FITC-anti human IgG Fc detection
T1 construct: range 42-709; The CD33 signal peptide (Met1-Ala16) of the construct is left out; also called mouse P-Selectin fused to the Fc region of human IgG1; P-selectin-Fc fusion protein; not shown: Human IgG1 constant region, Pro100-Lys330
T1 sequence: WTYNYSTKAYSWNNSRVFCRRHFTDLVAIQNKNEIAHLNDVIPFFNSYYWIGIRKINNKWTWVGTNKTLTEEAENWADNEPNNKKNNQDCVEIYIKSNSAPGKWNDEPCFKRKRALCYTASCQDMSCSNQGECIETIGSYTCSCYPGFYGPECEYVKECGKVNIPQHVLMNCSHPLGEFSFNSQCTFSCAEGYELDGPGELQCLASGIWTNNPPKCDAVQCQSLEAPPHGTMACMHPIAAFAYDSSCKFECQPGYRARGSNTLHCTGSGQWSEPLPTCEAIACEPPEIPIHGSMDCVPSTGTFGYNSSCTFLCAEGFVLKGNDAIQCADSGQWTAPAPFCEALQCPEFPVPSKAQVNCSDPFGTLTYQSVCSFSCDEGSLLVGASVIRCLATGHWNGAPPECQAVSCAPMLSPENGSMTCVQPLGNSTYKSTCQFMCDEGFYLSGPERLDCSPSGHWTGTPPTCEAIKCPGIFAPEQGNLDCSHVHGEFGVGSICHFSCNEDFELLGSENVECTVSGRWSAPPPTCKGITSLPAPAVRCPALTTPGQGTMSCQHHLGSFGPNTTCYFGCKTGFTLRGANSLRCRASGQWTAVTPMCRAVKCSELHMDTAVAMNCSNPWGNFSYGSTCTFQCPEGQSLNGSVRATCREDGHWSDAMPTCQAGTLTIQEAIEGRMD
Description: To determine ability of selectins (P-Selectin, E-Selectin, and L-Selectin) to bind to activated T cells, freshly prepared splenocytes from C57BL/6 mice were activated and harvested at days 2, 4, and 6. Non-activated T cells (i.e., freshly prepared splenocytes at day 0) were also analyzed. The day 2 sample constituted 3×10⁶ cells/ml of splenocytes that were activated with 2 ug/ml of Concanavalin A (Con A) in DMEM+10% FBS for 2 days. Live cells were isolated by Ficoll gradient separation. The day 4 sample was obtained from cells that were activated with Con A for 3 days and maintained in medium containing 5 ng/ml of IL-2 for an additional day. The day 6 sample was derived from cells that were activated with Con A for 3 days and maintained in 5 ng/ml of IL-2 for 3 days.
To assay the samples by FACS analysis, 2×10⁵ cells per well from days 0, 2, 4 and 6 were incubated at 4° C. for 30 minutes with 40 ul/well of mouse P-Selectin, E-Selectin, or L-Selectin fused to the Fc region of human IgG1 (R&D Systems, Minneapolis, Minn.) at concentrations ranging from 20 ug/ml with two-fold serial dilution to 0.156 ug/ml. Following the incubation, cells were washed with 1× FACScan buffer (1×PBS without calcium and magnesium ions from Biochrom AG, Berlin and 2% FBS). […]

Chain of human P-selectin glycoprotein ligand-1 (PSGL-1) (human) (Q14242 42-412): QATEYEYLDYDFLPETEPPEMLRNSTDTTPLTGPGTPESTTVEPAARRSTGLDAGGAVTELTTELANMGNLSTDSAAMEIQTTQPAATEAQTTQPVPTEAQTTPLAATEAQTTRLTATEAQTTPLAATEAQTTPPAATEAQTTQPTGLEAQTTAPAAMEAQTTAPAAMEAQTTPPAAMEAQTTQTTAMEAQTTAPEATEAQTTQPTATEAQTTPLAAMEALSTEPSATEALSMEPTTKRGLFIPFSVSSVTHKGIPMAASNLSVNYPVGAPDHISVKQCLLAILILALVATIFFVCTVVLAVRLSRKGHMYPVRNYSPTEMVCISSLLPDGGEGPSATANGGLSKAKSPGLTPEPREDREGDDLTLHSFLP

For “anti-PSGL-1 antibody clone KPL-1 (BD PharMingen)”, the percentage of apoptotic cells (Annexin V / PI, FACS) in PHA-activated human PBMC, day 3, with rabbit anti-mouse Ig cross-linker [1] was 8.5% and the percentage of apoptotic cells (Annexin V / PI, FACS) in PHA-activated human PBMC, day 8, with rabbit anti-mouse Ig cross-linker [1] was 24%.

B1: mouse P-selectin glycoprotein ligand-1 (PSGL-1), first designated T cell apoptosis inducing protein (TAIP) (receptor, UniProt Q62170 42-397, looked up)
chain: QVVGDDDFEDPDYTYNTDPPELLKNVTNTVAAHPELPTTVVMLERDSTSAGTSERATEKIATTDPTAPGTGGTAVGMLSTDSATQWSLTSVETVQPASTEVETSQPAPMEAETSQPAPMEAETSQPAPMEAETSQPAPMEADTSQPAPMEAETSQPAPNEAETSKPAPTEAETSKPAPTEAETTQLPRIQAVKTLFTTSAATEVPSTEPTTMETASTESNESTIFLGPSVTHLPDSGLKKGLIVTPGNSPAPTLPGSSDLIPVKQCLLIILILASLATIFLVCTVVLAVRLSRKTHMYPVRNYSPTEMICISSLLPEGGDGAPVTANGGLPKVQDLKTEPSGDRDGDDLTLHSFLP
notes: whole, on cells; Endogenous protein on mouse T cells; For immunoprecipitation and western blot it was solubilised from RL1 T cell lysates; also called TAIP antigen; CD162
B1: binds [2].
